T1: SYP41 (Arabidopsis thaliana) (UniProt O65359)
T1 sequence: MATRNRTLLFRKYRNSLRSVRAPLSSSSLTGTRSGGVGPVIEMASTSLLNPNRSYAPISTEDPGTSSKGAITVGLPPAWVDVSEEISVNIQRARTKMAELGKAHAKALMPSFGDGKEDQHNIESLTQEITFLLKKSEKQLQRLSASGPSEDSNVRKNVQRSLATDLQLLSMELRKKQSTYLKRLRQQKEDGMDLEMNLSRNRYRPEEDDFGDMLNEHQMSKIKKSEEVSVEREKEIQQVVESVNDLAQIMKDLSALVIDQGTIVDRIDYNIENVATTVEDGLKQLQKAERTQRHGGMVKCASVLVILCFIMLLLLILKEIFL

T2: SYP42 (Arabidopsis thaliana) (UniProt Q9SWH4)
T2 sequence: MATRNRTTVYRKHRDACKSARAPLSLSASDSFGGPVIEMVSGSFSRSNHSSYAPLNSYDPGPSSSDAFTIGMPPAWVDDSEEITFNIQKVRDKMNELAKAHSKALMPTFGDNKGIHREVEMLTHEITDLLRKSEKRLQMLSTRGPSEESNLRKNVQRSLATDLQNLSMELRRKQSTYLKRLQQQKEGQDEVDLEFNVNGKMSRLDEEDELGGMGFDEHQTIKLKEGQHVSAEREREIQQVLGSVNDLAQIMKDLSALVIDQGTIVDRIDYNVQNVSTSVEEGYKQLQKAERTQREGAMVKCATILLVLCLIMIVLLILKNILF

T3: SYP43 (Arabidopsis thaliana) (UniProt Q9SUJ1)
T3 sequence: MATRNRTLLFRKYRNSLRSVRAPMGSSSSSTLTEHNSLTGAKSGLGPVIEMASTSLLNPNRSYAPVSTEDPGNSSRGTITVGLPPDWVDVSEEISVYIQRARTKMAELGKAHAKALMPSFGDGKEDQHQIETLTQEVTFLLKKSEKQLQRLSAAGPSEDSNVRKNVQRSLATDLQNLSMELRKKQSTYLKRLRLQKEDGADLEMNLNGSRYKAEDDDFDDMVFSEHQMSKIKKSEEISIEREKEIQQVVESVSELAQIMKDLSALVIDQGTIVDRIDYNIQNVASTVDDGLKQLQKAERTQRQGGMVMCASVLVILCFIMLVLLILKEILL


How the values were obtained:
[1] = molecular target: T1, SYP41 (Arabidopsis thaliana)
[2] = molecular target: T2, SYP42 (Arabidopsis thaliana)
[3] = molecular target: T3, SYP43 (Arabidopsis thaliana)

Row | NBD fluorescence increase (lipid mixing) of SYP41 acceptor vesicles with R-VTI11 donor vesicles after 30 min preincubation with YKT62 and VTI12s; pair blocked: m1 + m4 [1] [%] | NBD fluorescence increase (lipid mixing) of SYP41 acceptor vesicles with R-VTI12 donor vesicles after 30 min preincubation with YKT62 and VTI12s; pair blocked: m1 + m5 [1] [%] | NBD fluorescence increase (lipid mixing) of SYP42 acceptor vesicles with R-VTI11 donor vesicles after 30 min preincubation with YKT62 and VTI12s; pair blocked: m2 + m4 [2] [%] | NBD fluorescence increase (lipid mixing) of SYP42 acceptor vesicles with R-VTI12 donor vesicles after 30 min preincubation with YKT62 and VTI12s; pair blocked: m2 + m5 [2] [%] | NBD fluorescence increase (lipid mixing) of SYP43 acceptor vesicles with R-VTI11 donor vesicles after 30 min preincubation with YKT62 and VTI12s; pair blocked: m3 + m4 [3] [%] | NBD fluorescence increase (lipid mixing) of SYP43 acceptor vesicles with R-VTI12 donor vesicles after 30 min preincubation with YKT62 and VTI12s; pair blocked: m3 + m5 [3] [%] | NBD fluorescence increase (lipid mixing) of SYP41 acceptor vesicles with R-VTI11 donor vesicles after 30 min preincubation with YKT62 and VTI11s; pair blocked: m1 + m4 [1] [%] | NBD fluorescence increase (lipid mixing) of SYP41 acceptor vesicles with R-VTI12 donor vesicles after 30 min preincubation with YKT62 and VTI11s; pair blocked: m1 + m5 [1] [%] | NBD fluorescence increase (lipid mixing) of SYP42 acceptor vesicles with R-VTI11 donor vesicles after 30 min preincubation with YKT62 and VTI11s; pair blocked: m2 + m4 [2] [%] | NBD fluorescence increase (lipid mixing) of SYP42 acceptor vesicles with R-VTI12 donor vesicles after 30 min preincubation with YKT62 and VTI11s; pair blocked: m2 + m5 [2] [%] | NBD fluorescence increase (lipid mixing) of SYP43 acceptor vesicles with R-VTI11 donor vesicles after 30 min preincubation with YKT62 and VTI11s; pair blocked: m3 + m4 [3] [%] | NBD fluorescence increase (lipid mixing) of SYP43 acceptor vesicles with R-VTI12 donor vesicles after 30 min preincubation with YKT62 and VTI11s; pair blocked: m3 + m5 [3] [%] | Molecule
1 | < 4 | < 4 | < 4 | < 4 | < 4 | < 4 |  |  |  |  |  |  | soluble fragment of VTI12 (domain or fragment)
2 |  |  |  |  |  |  | < 4 | < 4 | < 4 | < 4 | < 4 | < 4 | soluble fragment of VTI11 (domain or fragment) MSDVFDGYERQYCELSASLSKKCSSAISLDGEQKKQKLSEIKSGLENAEVLIRKMDLEARTLPPNLKSSLLVKLREFKSDLNNFKTEVKRITSGQLNAAARDELLEAGMADTKTASADQRARLMMSTERLGRTTDRVKDSRRTMMETEEIGVSILQDLHGQRQSLLRAHETLHGVDDNIGKSKKILTDMTRRMNKNKWTI
